Experimental data published in patent US20210355194A1 (TWIST BIOSCIENCE, published 2021).

These binders were tested against T1, Acro SARS-CoV-2 (COVID-19) S1 protein (SARS-CoV-2, UniProt P0DTC2 16-685) (assay: SPR).
T1 construct: also called SARS-CoV-2 S1

Row | Binder | Kd
1 | variant 6-34 (Fc fusion) VHH: EVQLVESGGGLVQPGGSLRLSCAASGSAFRSNAMGWFRQAPGKEREFVAHISWSSKSTYYADSVKGRFTISADNSKNTAYLQMNSLKPEDTAVYYCATYCSSTSCFDYWGQGTLVTVSS | 21.3 nM
2 | variant 6-19 (Fc fusion) VHH: EVQLVESGGGLVQPGGSLRLSCAASGSILSIAVMGWFRQAPGKEREFVAAISPSAVTTYYADSVKGRFTISADNSKNTAYLQMNSLKPEDTAVYYCAIGYYDSSGYFDYWGQGTLVTVSS | 71 nM
3 | variant 6-22 (Fc fusion) VHH: EVQLVESGGGLVQPGGSLRLSCAASGRTFSEVVMGWFRQAPGKEREFVATIHSSGSTSYADSVKGRFTISADNSKNTAYLQMNSLKPEDTAVYYCVRVTSDYSMDSWGQGTLVTVSS | 25.6 nM
4 | variant 6-36 (Fc fusion) VHH: EVQLVESGGGLVQPGGSLRLSCAASGFDFSVSWMGWFRQAPGKEREFVTAITWSGDSTNYADSVKGRFTISADNSKNTAYLQMNSLKPEDTAVYYCASLLHTGPSGGNYFDYWGQGTLVTVSS | 32.1 nM
5 | variant 6-17 (Fc fusion) VHH: EVQLVESGGGLVQPGGSLRLSCAASGNTGSTGYMGWFRQAPGKEREMVAGVINDGSTVYADSVKGRFTISADNSKNTAYLQMNSLKPEDTAVYYCARLATSHQDGTGYLFDYWGQGTLVTVSS | 65.2 nM
6 | variant 6-35 (Fc fusion) VHH: EVQLVESGGGLVQPGGSLRLSCAASGFTLAYYAMGWFRQAPGKEREFVAAISMSGDDTIYADSVKGRFTISADNSKNTAYLQMNSLKPEDTAVYYCARELGYSSTVWPWGQGTLVTVSS | 251 nM
7 | variant 6-28 (Fc fusion) VHH: EVQLVESGGGLVQPGGSLRLSCAASGDTYGSYWMGWFRQAPGKEREFVATITSDDRTNYADSVKGRFTISADNSKNTAYLQMNSLKPEDTAVYYCARVTSSLSGMDVWGQGTLVTVSS | 54.1 nM
8 | variant 6-9 (Fc fusion) VHH: EVQLVESGGGLVQPGGSLRLSCAASGFTFDYYAMGWFRQAPGKEREFVSAIDSEGRTSYADSVKGRFTISADNSKNTAYLQMNSLKPEDTAVYYCARWGPFDIWGQGTLVTVSS | 18.5 nM
9 | variant 6-23 (Fc fusion) VHH: EVQLVESGGGLVQPGGSLRLSCAASGSIFSMNTMGWFRQAPGKEREFVALINRSGGGINYADSVKGRFTISADNSKNTAYLQMNSLKPEDTAVYYCVRLSSGYYDFDYWGQGTLVTVSS | 59.3 nM
10 | variant 6-39 (Fc fusion) VHH: EVQLVESGGGLVQPGGSLRLSCAASGFTFSPSWMGWFRQAPGKEREFVAAISWSGGSTAYADSVKGRFTISADNSKNTAYLQMNSLKPEDTAVYYCHGLGEGDPYGDYEGYFDLWGQGTLVTVSS | 11.3 nM
11 | variant 6-24 (Fc fusion) VHH: EVQLVESGGGLVQPGGSLRLSCAASGFTLDYYAMGWFRQAPGKEREFVAAINWSGDNTHYADSVKGRFTISADNSKNTAYLQMNSLKPEDTAVYYCARAPFYCTTTKCQDNYYYMDVWGQGTLVTVSS | 29.9 nM
12 | variant 6-13 (Fc fusion) VHH: EVQLVESGGGLVQPGGSLRLSCAASGLTFNDYAMGWFRQAPGKEREFVAHIPRSTYSPYYADSVKGRFTISADNSKNTAYLQMNSLKPEDTAVYYCAFLVGPQGVDHGAFDVWGQGTLVTVSS | 25.3 nM
13 | variant 6-18 (Fc fusion) VHH: EVQLVESGGGLVQPGGSLRLSCAASGLTFRNYAMGWFRQAPGKEREFIAGMMWSGGTTTYADSVKGRFTISADNSKNTAYLQMNSLKPEDTAVYYCAREGYYYDSSGYLNYFDYWGQGTLVTVSS | 30.1 nM
14 | variant 6-32 (Fc fusion) VHH: EVQLVESGGGLVQPGGSLRLSCAASGFTLDYYDMGWFRQAPGKEREFVALISWSGGSTYYADSVKGRFTISADNSKNTAYLQMNSLKPEDTAVYYCATDFYGWGTRERDAFDIWGQGTLVTVSS | 27.2 nM
15 | variant 6-6 (Fc fusion) VHH: EVQLVESGGGLVQPGGSLRLSCAASGTTLDYYAMGWFRQAPGKERELVAAISWSGGSTAYADSVKGRFTISADNSKNTAYLQMNSLKPEDTAVYYCAREDYYDSSGYSWGQGTLVTVSS | 6.4 nM
16 | variant 6-5 (Fc fusion) VHH: EVQLVESGGGLVQPGGSLRLSCAASGRTFTMGWFRQAPGKEREFVASTNSAGSTNYADSVNGRFTISADNSKNTAYLQMNSLKPEDTAVYYCTTVDQYFDYWGQGTLVTVSS | 24.9 nM
17 | variant 6-38 (Fc fusion) VHH: EVQLVESGGGLVQPGGSLRLSCAASGNTFSGGFMGWFRQAPGKEREFVAVISSLSSKSYADSVKGRFTISADNSKNTAYLQMNSLKPEDTAVYYCAKVDSGYDYWGQGTLVTVSS | 26.6 nM
18 | variant 6-14 (Fc fusion) VHH: EVQLVESGGGLVQPGGSLRLSCAASGITFRFKAMGWFRQAPGKEREFVAAVSWDGRNTYYADSVKGRFTISADNSKNTAYLQMNSLKPEDTAVYYCASDYYYMDVWGQGTLVTVSS | 135 nM
19 | variant 6-16 (Fc fusion) VHH: EVQLVESGGGLVQPGGSLRLSCAASGFTFDDAAMGWFRQAPGKEREFVAHISWSGGSTYYADSVKGRFTISADNSKNTAYLQMNSLKPEDTAVYYCATFGATVTATNDAFDIWGQGTLVTVSS | 52.1 nM
20 | variant 6-12 (Fc fusion) VHH: EVQLVESGGGLVQPGGSLRLSCAASGSTYTTYSMGWFRQAPGKEREFVAAISGSENVTSYADSVKGRFTISADNSKNTAYLQMNSLKPEDTAVYYCARVDDYMDVWGQGTLVTVSS | 50.2 nM
21 | variant 6-37 (Fc fusion) VHH: EVQLVESGGGLVQPGGSLRLSCAASGHTFSTSWMGWFRQAPGKEREFVATINSLGGTNYADSVKGRFTISADNSKNTAYLQMNSLKPEDTAVYYCARVSSGDYGMDVWGQGTLVTVSS | 22.5 nM
22 | variant 6-31 (Fc fusion) VHH: EVQLVESGGGLVQPGGSLRLSCAASGDTFSANRMGWFRQAPGKEREFVASITWSSANTYYADSVKGRFTISADNSKNTAYLQMNSLKPEDTAVYYCATFNWNDEGFDFWGQGTLVTVSS | 39.6 nM
23 | variant 6-10 (Fc fusion) VHH: EVQLVESGGGLVQPGGSLRLSCAASGSIASIHAMGWFRQAPGKEREFVAAISRSGGFGSYADSVKGRFTISADNSKNTAYLQMNSLKPEDTAVYYCARDDKYYDSSGYPAYFQHWGQGTLVTVSS | 29.7 nM
24 | variant 6-33 (Fc fusion) VHH: EVQLVESGGGLVQPGGSLRLSCAASGTFQRINHMGWFRQAPGKEREFVATINTGGQPNYADSVKGRFTISADNSKNTAYLQMNSLKPEDTAVYYCASLIAAQDYYFDYWGQGTLVTVSS | 76.4 nM
25 | variant 6-25 (Fc fusion) VHH: EVQLVESGGGLVQPGGSLRLSCAASGLTFGTYTMGWFRQAPGKEREFVAAISRFGSTYYADSVKGRFTISADNSKNTAYLQMNSLKPEDTAVYYCARGGDYDFWSVDYMDVWGQGTLVTVSS | 248 nM
